Measurements: patent US20050214871A1

Target: ligands present on the membranes of early apoptotic cells
Experiment: flow cytometry on anti-CD95-treated Jurkat E6-1 cells, streptavidin-PE detection

percent of early apoptotic Jurkat E6-1 cells binding sCD163-biotin: > 50%
Substance: human soluble CD163, biotinylated (sCD163-biotin) (from UniProt Q86VB7 42-1045)
